The record followed here is PMC10858868, “TFIP11 promotes replication fork reversal to preserve genome stability”.

The target in the data set is T1, TFIP11 (UniProt Q9UBB9 1-837).
T1 sequence: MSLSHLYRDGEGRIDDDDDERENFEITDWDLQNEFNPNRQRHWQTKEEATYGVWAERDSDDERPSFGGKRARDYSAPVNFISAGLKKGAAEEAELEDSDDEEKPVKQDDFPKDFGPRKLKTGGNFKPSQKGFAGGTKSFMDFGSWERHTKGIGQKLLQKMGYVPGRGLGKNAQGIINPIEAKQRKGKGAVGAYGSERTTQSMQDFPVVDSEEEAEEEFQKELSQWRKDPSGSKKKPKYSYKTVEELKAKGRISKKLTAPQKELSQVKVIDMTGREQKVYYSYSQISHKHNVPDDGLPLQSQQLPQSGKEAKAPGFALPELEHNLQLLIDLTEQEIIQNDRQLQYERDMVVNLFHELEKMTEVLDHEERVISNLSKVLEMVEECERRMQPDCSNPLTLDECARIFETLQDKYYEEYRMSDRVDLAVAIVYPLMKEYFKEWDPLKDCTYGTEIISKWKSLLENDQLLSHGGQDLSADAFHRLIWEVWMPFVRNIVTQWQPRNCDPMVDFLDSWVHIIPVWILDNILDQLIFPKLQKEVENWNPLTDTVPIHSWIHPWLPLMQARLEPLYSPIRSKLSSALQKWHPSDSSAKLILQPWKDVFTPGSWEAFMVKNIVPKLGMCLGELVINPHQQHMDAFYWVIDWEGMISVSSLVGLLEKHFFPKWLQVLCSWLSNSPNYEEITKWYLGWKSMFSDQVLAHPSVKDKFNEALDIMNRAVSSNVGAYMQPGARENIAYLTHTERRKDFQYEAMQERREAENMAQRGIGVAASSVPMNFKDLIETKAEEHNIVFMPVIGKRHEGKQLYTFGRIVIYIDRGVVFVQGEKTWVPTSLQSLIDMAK
The experiment in a line: EMSA; 15, 30 nM TFIP11; 0.5 nM DNA; at most about 6% bound in Source Data; EMSA: 10 mM MgCl2, 2.5% glycerol, 0.05% NP-40, 0.5 nM biotin-DNA, 20 min, room temperature (Pierce LightShift kit). Pull-down: 20 mM Tris-HCl pH 7.5, 120 mM NaCl, 0.1% Triton X-100, 2 mM CaCl2, 10 mM Mg(OAc)2, 1 mM DTT, 0.1 mg/mL BSA, 4 °C, 30 min. The conditions noted are these: protein: recombinant, tags: His-SUMO (N-terminal). (A gel shift assay detects complexes by their altered migration in electrophoresis.)

B1: dsDNA (oligo 1 + oligo 2) (dsDNA)
DNA 1: GACGCTGCCGAATTCTACCAGTGCCTTGCTAGGACATCTTTGCCCACCTGCAGGTTCAC
DNA 2: GTGAACCTGCAGGTGGGCAAAGATGTCCTAGCAAGGCACTGGTAGAATTCGGCAGCGTC
For the molecule B1, the binding result (label: 5'-biotin on oligo 1, blunt) is “no binding”.

B2: ssDNA (oligo 1) (ssDNA)
DNA: GACGCTGCCGAATTCTACCAGTGCCTTGCTAGGACATCTTTGCCCACCTGCAGGTTCAC
With B2, under “label: 5'-biotin, single strand”, the binding result was “no binding”.
